The record followed here is patent publication US20110118447A1.

Substitutions are numbered along the chain they refer to. Names may count otherwise.

Sequences and labels used below:
B1: C5A (XPA23) VH S54Q (antibody, V domains shown)
VH: EVQLLESGGGLVQPGGSLRLSCAASGFTFSKYFMFWVRQAPGKGLEWVSVISPQGGMTRYADSVKGRFTISRDNSKNTLYLQMNSLRAEDTAVYYCARVGYGGNSDYWGQGTLVTVSS
VL: DIQMTQSPSSVSASVGDRLTIICRASQDINRWLAWYQQTPGNAPKLLIHSATSLQSGVPSRFSGSGSGTDFTLTINSLQPEDFATYYCQQADSFPLTFGGGTKVEIK
B2: C5A (XPA23) VH T58S (antibody, V domains shown)
VH: B1 VH with Q54S, T58S
VL: B1 VL
B3: C5A (XPA23) VH G56N (antibody, V domains shown)
VH: B1 VH with Q54S, G56N
VL: B1 VL
B4: C5A (XPA23) VH G55Y (antibody, V domains shown)
VH: B1 VH with Q54S, G55Y
VL: B1 VL
B5: C5A (XPA23) VH R59K (antibody, V domains shown)
VH: B1 VH with Q54S, R59K
VL: B1 VL
B6: C5A (XPA23) VH G56K (antibody, V domains shown)
VH: B1 VH with Q54S, G56K
VL: B1 VL
B7: C5A (XPA23) VH M57Q (antibody, V domains shown)
VH: B1 VH with Q54S, M57Q
VL: B1 VL
B8: C5A (XPA23) VH T58H (antibody, V domains shown)
VH: B1 VH with Q54S, T58H
VL: B1 VL
B9: C5A (XPA23) VH G56T (antibody, V domains shown)
VH: B1 VH with Q54S, G56T
VL: B1 VL
B10: C5A (XPA23) VH G55N (antibody, V domains shown)
VH: B1 VH with Q54S, G55N
VL: B1 VL
B11: C5A (XPA23) VH G55Q (antibody, V domains shown)
VH: B1 VH with Q54S, G55Q
VL: B1 VL
B12: C5A (XPA23) VH R59S (antibody, V domains shown)
VH: B1 VH with Q54S, R59S
VL: B1 VL
B13: C5A (XPA23) VH M57N (antibody, V domains shown)
VH: B1 VH with Q54S, M57N
VL: B1 VL
B14: C5A (XPA23) VH T58N (antibody, V domains shown)
VH: B1 VH with Q54S, T58N
VL: B1 VL
B15: C5A (XPA23) VH M57H (antibody, V domains shown)
VH: B1 VH with Q54S, M57H
VL: B1 VL
B16: C5A (XPA23) VH G55S (antibody, V domains shown)
VH: B1 VH with Q54S, G55S
VL: B1 VL
B17: C5A (XPA23) VH M57R (antibody, V domains shown)
VH: B1 VH with Q54S, M57R
VL: B1 VL
B18: C5A (XPA23) VH T58R (antibody, V domains shown)
VH: B1 VH with Q54S, T58R
VL: B1 VL
B19: C5A (XPA23) VH G56H (antibody, V domains shown)
VH: B1 VH with Q54S, G56H
VL: B1 VL
B20: C5A (XPA23) VH G55E (antibody, V domains shown)
VH: B1 VH with Q54S, G55E
VL: B1 VL
B21: C5A (XPA23) VH G56D (antibody, V domains shown)
VH: B1 VH with Q54S, G56D
VL: B1 VL
B22: C5A (XPA23) VH T58Y (antibody, V domains shown)
VH: B1 VH with Q54S, T58Y
VL: B1 VL
B23: C5A (XPA23) VH G56R (antibody, V domains shown)
VH: B1 VH with Q54S, G56R
VL: B1 VL
B24: C5A (XPA23) VH M57S (antibody, V domains shown)
VH: B1 VH with Q54S, M57S
VL: B1 VL
B25: C5A (XPA23) VH T58D (antibody, V domains shown)
VH: B1 VH with Q54S, T58D
VL: B1 VL
B26: C5A (XPA23) VH G56Q (antibody, V domains shown)
VH: B1 VH with Q54S, G56Q
VL: B1 VL
B27: C5A (XPA23) VH G55K (antibody, V domains shown)
VH: B1 VH with Q54S, G55K
VL: B1 VL
B28: C5A (XPA23) VH M57T (antibody, V domains shown)
VH: B1 VH with Q54S, M57T
VL: B1 VL
B29: C5A (XPA23) VH G56Y (antibody, V domains shown)
VH: B1 VH with Q54S, G56Y
VL: B1 VL
B30: C5A (XPA23) VH R59T (antibody, V domains shown)
VH: B1 VH with Q54S, R59T
VL: B1 VL
B31: C5A (XPA23) VH M57Y (antibody, V domains shown)
VH: B1 VH with Q54S, M57Y
VL: B1 VL
B32: C5A (XPA23) VH G55R (antibody, V domains shown)
VH: B1 VH with Q54S, G55R
VL: B1 VL
B33: C5A (XPA23) VH S54Y (antibody, V domains shown)
VH: B1 VH with Q54Y
VL: B1 VL
B34: C5A (XPA23) VH G56E (antibody, V domains shown)
VH: B1 VH with Q54S, G56E
VL: B1 VL
B35: C5A (XPA23) VH M57K (antibody, V domains shown)
VH: B1 VH with Q54S, M57K
VL: B1 VL

The first test addresses binding partner of C5A (XPA23). Description: Biacore. (In general: In SPR one partner is held on a chip, and binding of the other changes the refractive index at the surface.)
As to B1, the fold affinity vs original is 1.01 fold.
Still for that read-out and setting: then B2, with 0.82 fold; and B3, with 1.06 fold.
For the molecule B4, the fold affinity vs original worked out at 0.08 fold.
As to B5, the fold affinity vs original was found to be 0.94 fold.
On the same count and under the same terms, then B6, with 2.05 fold.
Still for that read-out and setting: to B7 belongs 0.02 fold.
The same measure, in the same setting: then B8, with 0.98 fold.
For B9, the fold difference in affinity vs original turned out to be 1.11 fold.
For B10, the fold affinity vs original stood at 0.1 fold.
Take B11: the fold affinity vs original amounted to 0.9 fold.
In the case of B12, the fold affinity vs original was 0.13 fold.
On the same count and under the same terms, then B13, with 0.03 fold; and B14, with 0.9 fold.
Still for that read-out and setting: to B15 belongs 0.08 fold; to B16, 1.02 fold.
On the same count and under the same terms, to B17 belongs 0.06 fold; to B18, 1.14 fold.
In the case of B19, the fold affinity vs original is 0.82 fold.
As to B20, the fold affinity vs original turned out to be 0.11 fold.
As to B21, the fold affinity vs original was 0.05 fold.
Turning to B22, the fold affinity vs original was 1.01 fold.
Still for that read-out and setting: then B23, with 2.11 fold; and B24, with 0.04 fold.
For B25, the fold affinity vs original was 0.12 fold.
Same read-out and setting: then B26, with 1.31 fold; and B27, with 0.11 fold.
With B28, the fold difference in affinity vs original was determined as 0.06 fold.
B29: the fold affinity vs original turned out to be 1.27 fold.
Turning to B30, the fold difference in affinity vs original was 0.76 fold.
With B31, the fold affinity vs original came to 0.86 fold.
Regarding B32, the fold affinity vs original is 0.95 fold.
Same read-out and setting: to B33 belongs 0.99 fold; to B34, 1.21 fold; to B35, 0.04 fold.

For another test, the target named is binding partner of C5A (XPA23). Put plainly: Biacore, K-off.
Consider B1, for which the fold difference in affinity vs original came to 1.01 fold.
B2: the fold difference in affinity vs original amounted to 0.82 fold.
On the same count and under the same terms, to B3 belongs 1.06 fold; to B4, 0.08 fold; to B5, 0.94 fold.
On the same count and under the same terms, to B6 belongs 2.05 fold.
The same measure, in the same setting: to B7 belongs 0.02 fold.
Regarding B8, the fold difference in affinity vs original amounted to 0.98 fold.
The same measure, in the same setting: to B9 belongs 1.11 fold; to B10, 0.1 fold; to B11, 0.9 fold.
Take B12: the fold difference in affinity vs original stood at 0.13 fold.
Regarding B13, the fold difference in affinity vs original turned out to be 0.03 fold.
The same measure, in the same setting: then B14, with 0.9 fold; and B15, with 0.08 fold; and B16, with 1.02 fold.
With B17, the fold difference in affinity vs original was determined as 0.06 fold.
Still for that read-out and setting: to B18 belongs 1.14 fold; to B19, 0.82 fold; to B20, 0.11 fold.
Still for that read-out and setting: to B21 belongs 0.05 fold; to B22, 1.01 fold; to B23, 2.11 fold.
Same read-out and setting: then B24, with 0.04 fold; and B25, with 0.12 fold.
As to B26, the fold difference in affinity vs original came to 1.31 fold.
As to B27, the fold difference in affinity vs original turned out to be 0.11 fold.
On to B28, for which the fold difference in affinity vs original came out at 0.06 fold.
Same read-out and setting: to B29 belongs 1.27 fold; to B30, 0.76 fold.
On the same count and under the same terms, then B31, with 0.86 fold; and B32, with 0.95 fold; and B33, with 0.99 fold.
Still for that read-out and setting: then B34, with 1.21 fold; and B35, with 0.04 fold.
